In US20240066137A1 (ONEGENE BIOTECHNOLOGY, published 2024):
Read-outs that look alike come from different tables or passages of the source. Ends that are not written are not given here.

How the values were obtained:
Assay in all cases: cell-based or functional assay
FGFR1/KLB acceptor = FGFR1/KLB acceptor (UniProt P11362 22-822; Q86Z14 1-1044, limits assumed)
GLP-1 acceptor [1] = molecular target: T1, GLP-1 acceptor (UniProt P43220 24-463, limits assumed)
GIP acceptor = molecular target: T2, GIP acceptor (UniProt P48546 22-466, limits assumed)
T2 sequence (looked up): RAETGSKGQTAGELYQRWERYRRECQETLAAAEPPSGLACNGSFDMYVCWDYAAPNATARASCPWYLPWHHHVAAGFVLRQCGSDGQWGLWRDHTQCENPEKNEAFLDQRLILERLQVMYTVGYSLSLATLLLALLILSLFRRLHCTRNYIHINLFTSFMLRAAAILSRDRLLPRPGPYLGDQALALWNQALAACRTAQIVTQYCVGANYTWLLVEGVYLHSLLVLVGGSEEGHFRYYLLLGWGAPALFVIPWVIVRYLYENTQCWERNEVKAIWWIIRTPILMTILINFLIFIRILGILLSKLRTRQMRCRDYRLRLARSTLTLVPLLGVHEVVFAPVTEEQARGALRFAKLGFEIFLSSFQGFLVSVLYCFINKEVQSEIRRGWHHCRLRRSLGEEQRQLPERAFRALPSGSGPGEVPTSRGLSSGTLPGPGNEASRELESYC

GLP-1 acceptor [2] = molecular target: T1, GLP-1 acceptor; remark: listed apart in the source
GCG acceptor = GCG acceptor (UniProt P47871 26-477, limits assumed)
Sequence of GCG acceptor (P47871 26-477 limits assumed): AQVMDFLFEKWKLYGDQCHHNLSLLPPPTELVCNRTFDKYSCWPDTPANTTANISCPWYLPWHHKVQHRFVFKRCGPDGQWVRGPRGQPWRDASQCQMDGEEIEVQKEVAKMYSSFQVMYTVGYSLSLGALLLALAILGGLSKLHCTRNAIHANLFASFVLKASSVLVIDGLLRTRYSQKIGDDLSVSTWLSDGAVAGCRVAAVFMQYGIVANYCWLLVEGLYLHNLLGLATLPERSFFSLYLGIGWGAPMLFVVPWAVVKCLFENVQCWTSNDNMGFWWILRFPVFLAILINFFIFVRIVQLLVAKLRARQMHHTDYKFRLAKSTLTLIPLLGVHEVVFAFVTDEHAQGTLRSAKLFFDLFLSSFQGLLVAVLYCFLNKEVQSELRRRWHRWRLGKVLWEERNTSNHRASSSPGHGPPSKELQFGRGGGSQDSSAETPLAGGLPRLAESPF

Sequence of FGFR1/KLB acceptor (P11362 22-822 limits assumed, chain 1 of 2): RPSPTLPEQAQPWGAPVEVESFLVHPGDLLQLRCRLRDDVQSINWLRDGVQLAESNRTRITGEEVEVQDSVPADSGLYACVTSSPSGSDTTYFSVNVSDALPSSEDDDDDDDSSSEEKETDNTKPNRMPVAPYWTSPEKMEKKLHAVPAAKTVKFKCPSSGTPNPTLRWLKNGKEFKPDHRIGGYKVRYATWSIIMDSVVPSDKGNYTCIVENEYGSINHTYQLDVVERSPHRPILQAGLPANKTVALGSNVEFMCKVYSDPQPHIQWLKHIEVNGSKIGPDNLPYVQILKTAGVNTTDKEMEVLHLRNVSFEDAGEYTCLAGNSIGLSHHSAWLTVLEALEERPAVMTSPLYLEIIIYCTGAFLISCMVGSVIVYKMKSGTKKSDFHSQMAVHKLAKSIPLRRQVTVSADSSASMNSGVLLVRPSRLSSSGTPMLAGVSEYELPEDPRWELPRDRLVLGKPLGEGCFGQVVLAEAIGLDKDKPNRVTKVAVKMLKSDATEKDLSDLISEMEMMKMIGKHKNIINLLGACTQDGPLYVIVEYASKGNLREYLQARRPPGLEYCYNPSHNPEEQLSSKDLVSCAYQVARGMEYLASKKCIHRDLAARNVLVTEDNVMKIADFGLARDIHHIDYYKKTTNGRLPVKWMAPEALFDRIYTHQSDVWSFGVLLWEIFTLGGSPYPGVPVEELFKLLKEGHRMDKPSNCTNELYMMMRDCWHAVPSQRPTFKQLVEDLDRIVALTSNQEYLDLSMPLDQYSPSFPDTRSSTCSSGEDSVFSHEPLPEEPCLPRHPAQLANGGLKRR
Sequence of FGFR1/KLB acceptor (Q86Z14 whole entry, chain 2 of 2): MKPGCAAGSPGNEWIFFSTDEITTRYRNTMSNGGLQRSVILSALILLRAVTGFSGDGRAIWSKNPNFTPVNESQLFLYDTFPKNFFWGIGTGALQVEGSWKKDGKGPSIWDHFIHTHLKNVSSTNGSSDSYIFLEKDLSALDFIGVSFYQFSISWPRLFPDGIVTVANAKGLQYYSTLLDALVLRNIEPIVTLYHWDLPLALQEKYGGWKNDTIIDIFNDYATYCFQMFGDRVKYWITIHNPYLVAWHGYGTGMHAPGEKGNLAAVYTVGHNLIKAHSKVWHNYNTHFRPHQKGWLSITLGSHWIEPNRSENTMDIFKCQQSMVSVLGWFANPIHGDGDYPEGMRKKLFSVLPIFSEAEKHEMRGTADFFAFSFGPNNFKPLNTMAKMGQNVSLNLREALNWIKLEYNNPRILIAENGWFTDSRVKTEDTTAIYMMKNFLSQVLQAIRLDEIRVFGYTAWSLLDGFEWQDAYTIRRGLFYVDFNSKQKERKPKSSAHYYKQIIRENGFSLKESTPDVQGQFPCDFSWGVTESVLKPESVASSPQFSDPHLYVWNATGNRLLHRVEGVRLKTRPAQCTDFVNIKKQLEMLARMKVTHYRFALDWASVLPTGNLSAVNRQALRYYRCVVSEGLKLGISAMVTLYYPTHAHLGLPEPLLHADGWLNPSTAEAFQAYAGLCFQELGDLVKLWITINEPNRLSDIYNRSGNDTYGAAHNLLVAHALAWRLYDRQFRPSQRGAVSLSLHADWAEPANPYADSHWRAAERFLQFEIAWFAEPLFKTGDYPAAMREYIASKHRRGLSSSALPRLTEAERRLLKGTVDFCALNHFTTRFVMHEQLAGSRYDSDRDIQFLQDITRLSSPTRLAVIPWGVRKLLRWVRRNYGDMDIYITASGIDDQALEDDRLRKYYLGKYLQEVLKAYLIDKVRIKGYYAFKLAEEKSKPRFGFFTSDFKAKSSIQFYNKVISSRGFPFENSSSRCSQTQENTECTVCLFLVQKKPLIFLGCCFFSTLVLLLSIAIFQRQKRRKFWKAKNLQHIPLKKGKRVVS

B1: FGF#7 (ligand)
chain: HPIPDSSPLLQFGGQVRQVYLYTDDAQQTEAHLEIREDGTVGGAADQSPESLLQLKALKPGVIQILGVKTSRFLCQRPDGALYGSLHFDPEACSFREDLKEDGYNVYQSEAHGLPLHLPGNKSPHRDPAPRGPARFLPLPGLPPALPEPPGILAPQPPDVGSSDPLRLVEPSQLRSPSFE
- EC50, FGFR1/KLB functional assay; n = 2 (FGFR1/KLB acceptor): 17.7 nM

B2: GLP#1 (peptide)
peptide: HSEGTFTSDVSSYLEGQAAQEFIAWLVNGR
- EC50, cAMP accumulation assay; Transient cell line, n = 1 (GLP-1 acceptor [1]): 0.159 nM

B3: FGF#1 (ligand)
chain: HPIPDSSPLLQFGGQVRQRYLYTDDAQQTEAHLEIREDGTVGGAADQSPESLLQLKALKPGVIQILGVKTSRFLCQRPDGALYGSLHFDPEACSFREEIRPDGYNVYQSEAHGLPLHLPGNKSPHRDPAPRGPARFLPLPGLPPALPEPPGILAPQPPDVGSSDPLSMVTGLEANRSPSYES
- EC50, FGFR1/KLB functional assay; n = 2 (FGFR1/KLB acceptor): 21 nM

B4: FGF#5 (ligand)
chain: HPIPDSSPLLQFGGQVRQVYLYTDDAQQTEAHLEIREDGTVGGAADQSPESLLQLKALKPGVIQILGVKTSRFLCQRPDGALYGSLHFDPEACSFREDLKEDGYNVYQSEAHGLPLHLPGNKSPHRDPAPRGPARFLPLPGLPPALPEPPGILAPQPPDVGSSDPLSMVEGSQGRSPSYES
- EC50, FGFR1/KLB functional assay; n = 2 (FGFR1/KLB acceptor): 22.3 nM

B5: FGF#9 (ligand)
chain: HPIPDSSPLLQFGGQVRQVYLYTDDAQQTEAHLEIREDGTVGGAADQSPESLLQLKALKPGVIQILGVKTSRFLCQRPDGALYGSLHFDPEACSFRERLLEDGYNVYQSEAHGLPLHLPGNKSPHRDPAPRGPARFLPLPGLPPALPEPPGILAPQPPDVGSSDPLSMVEGSQGRSPSYES
- EC50, FGFR1/KLB functional assay; n = 2 (FGFR1/KLB acceptor): 19.1 nM

B6: GLP#3 (peptide)
peptide: HGEGTFTSDVSEYLEKQAAKEFIAWLVNGR
- EC50, cAMP accumulation assay; Transient cell line, n = 2 (GLP-1 acceptor [1]): 0.00225 nM

B7: GLP#7 (peptide)
peptide: HGEGTFTSDVSEYLEKQAAKEFIAWLVRGRG
- EC50, cAMP accumulation assay; Transient cell line, n = 1 (GLP-1 acceptor [1]): 0.023 nM

B8: GIP#1 (peptide)
peptide: YGEGTFISDYSIAMDKIHQQDFVNWLLAQKGKKNDWKHNITQ
- EC50, cAMP accumulation assay; Transient cell line, n = 3 (GIP acceptor): 0.0175 nM

B9: GIP#5 (peptide)
peptide: FSEGTFISDYSIAMDKIHQQDFVNWLLAQKGKKNDWKHNITQ
- EC50, cAMP accumulation assay; Transient cell line, n = 1 (GIP acceptor): 0.0819 nM

B10: GIP#7 (peptide)
peptide: YGEGTFISDYSIAMDKIRQQDFVNWLLAQKGKKNDWKHNITQ
- EC50, cAMP accumulation assay; Transient cell line, n = 1 (GIP acceptor): 0.0769 nM

B11: GIP#2 (peptide)
peptide: YSEGTFISDYSIAMDKIHQQDFVNWLLAQKGKKNDWKHNITQ
- EC50, cAMP accumulation assay; Stable cell line, n = 2 (GIP acceptor): 0.012 nM
- EC50, cAMP accumulation assay; Transient cell line, n = 3 (GIP acceptor): 0.00663 nM

B12: GLP#10 (peptide)
peptide: HGEGTFTSDVSEYLEKQAAQEFIAWLVKGR
- EC50, cAMP accumulation assay; Transient cell line, n = 2 (GLP-1 acceptor [1]): 0.00826 nM

B13: GLP#6 (peptide)
peptide: HSEGTFTSDVSEYLEKQAAKEFIAWLVKGR
- EC50, cAMP accumulation assay; Transient cell line, n = 2 (GLP-1 acceptor [1]): 0.0015 nM

B14: GLP#5 (peptide)
peptide: HSEGTFTSDVSSYLEEQAAKEFIAWLVKGGG
- EC50, cAMP accumulation assay; Transient cell line, n = 1 (GLP-1 acceptor [1]): 0.00752 nM

B15: GLP#9 (peptide)
peptide: HGEGTFTSDVSSYLEEQAAKEFIAWLVKGGG
modifications: ends and bridges not checked
- EC50, cAMP accumulation assay; Stable cell line, n = 4 (GLP-1 acceptor [1]): 0.00208 nM
- EC50, cAMP accumulation assay; Transient cell line, n = 3 (GLP-1 acceptor [1]): 0.00071 nM

B16: GLP#8 (peptide)
peptide: HGEGTFTSDVSSYLEEQAAKEFIAWLVRGRG
- EC50, cAMP accumulation assay; Transient cell line, n = 2 (GLP-1 acceptor [1]): 0.00195 nM

B17: GLP/GCG#3 (peptide)
peptide: HGQGTFTSDYSKYLDEQAAKEFIAWLMNT
- EC50, cAMP accumulation assay; Transient cell line, n = 1 (GLP-1 acceptor [2]): 0.013 nM
- EC50, cAMP accumulation assay; Transient cell line, n = 1 (GCG acceptor): > 5 nM

B18: GLP/GCG#15 (peptide)
peptide: HSQGTFTSDYSKYLDEQAAKEFIAWLMNT
- EC50, cAMP accumulation assay; Transient cell line, n = 1 (GLP-1 acceptor [2]): 0.016 nM
- EC50, cAMP accumulation assay; Transient cell line, n = 1 (GCG acceptor): 0.424 nM
